Source: patent US20030170252

Tested on: p33^QIK, quiescence induced kinase, 33-kDa Krsl-related cytoplasmic protein kinase, endogenous in mouse NIH3T3 cytosolic lysate (S20)

Substance: Protein phosphatase 1 (PP1) (NE BioLabs)
- kinase activity of p33^QIK in Ab-KQ immune complexes after phosphatase treatment (in-gel kinase assay, MBP substrate): treatment of activated p33^QIK with protein phosphatase PP1 ... resulted in deactivation of p33^QIK This deactivation was suppressed by phosphatase inhibitors
